Experimental data from the supplement of paper PMC7125110.
± gives the standard error. This sample holds only a part of the variants without activity.

B1: glmS ribozyme (parent)
chain: AUAAAAGCGCCAGAACUACAGAAAUGUAGUUGACGAGGAGGAGGUUUAUCGAAUUUUCGGCGGAUGCCUCCAAA

What was measured:
Conditions in all cases: with glucosamine-6-phosphate
[1] = variants of: B1; test: self-cleavage kobs at 160 uM GlcN6P; higher = faster cleavage; RNA array
Procedure, shortened: (§1)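 E. coli RNA polymerase transcribed barcoded ribozyme variants in situ on sequenced MiSeq chips, which were tracked via a hybridised Cy3 probe at 37 °C. Tiles were imaged over ~14 h after glucosamine-6-phosphate (40 μM to 10 mM) in HEPES/KCl/Mg(OAc)2 buffer was flowed in. Normalised per-tile medians were fit to one- or two-exponential decays for kobs, and kcat and KM came from weighted Michaelis–Menten fits.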

[2] = variants of: B1; test: self-cleavage kobs at 2500 uM GlcN6P; higher = faster cleavage; RNA array
Procedure, shortened: as §1

[3] = variants of: B1; test: self-cleavage kobs at 10000 uM GlcN6P; higher = faster cleavage; RNA array
Procedure, shortened: as §1

[4] = variants of: B1; test: self-cleavage kobs at 640 uM GlcN6P; higher = faster cleavage; RNA array
Procedure, shortened: as §1

Row | Variant | self-cleavage kobs at 160 uM GlcN6P [1] | self-cleavage kobs at 2500 uM GlcN6P [2] | self-cleavage kobs at 10000 uM GlcN6P [3] | self-cleavage kobs at 640 uM GlcN6P [4]
1 | G9U C58G G63U | < 1e-05 s⁻¹ | < 1e-05 s⁻¹ | < 1e-05 s⁻¹ | 
2 | G29A G62A | < 1e-05 s⁻¹ | < 1e-05 s⁻¹ |  | < 1e-05 s⁻¹
3 | G7U G66A | < 1e-05 s⁻¹ |  | < 1e-05 s⁻¹ | 
4 | G9U C11U G38C | < 1e-05 s⁻¹ | < 1e-05 s⁻¹ |  | < 1e-05 s⁻¹
5 | A12U C16A G41C | < 1e-05 s⁻¹ |  |  | 
6 | G32C A64G | < 1e-05 s⁻¹ | 5.42e-05 ± 1.9e-05 s⁻¹ |  | 
7 | A14U U47G C68G | 7.2e-05 ± 2.9e-05 s⁻¹ | 5.08e-05 ± 2.3e-05 s⁻¹ |  | 0.000125 ± 2.8e-05 s⁻¹
8 | G13U G44U C68U | < 1e-05 s⁻¹ | < 1e-05 s⁻¹ |  | < 1e-05 s⁻¹
9 | A12C A15G C50G U56G C67G | 0.000121 ± 2.8e-05 s⁻¹ | 0.000133 ± 3.1e-05 s⁻¹ | 4.37e-05 ± 1.2e-05 s⁻¹ | 0.000141 ± 3.7e-05 s⁻¹
10 | C10A G35C G51U | < 1e-05 s⁻¹ | < 1e-05 s⁻¹ |  | < 1e-05 s⁻¹
11 | G29U U69C | 3.84e-05 ± 1.5e-05 s⁻¹ | 0.000114 ± 3.1e-05 s⁻¹ |  | 0.000356 ± 9e-05 s⁻¹
12 | G35U A64G | < 1e-05 s⁻¹ | < 1e-05 s⁻¹ |  | < 1e-05 s⁻¹
13 | A12G G41U C50U | < 1e-05 s⁻¹ | < 1e-05 s⁻¹ |  | < 1e-05 s⁻¹
14 | A52G C68G U69C | 5.98e-05 ± 2.7e-05 s⁻¹ |  |  | 
15 | G7C A48C C50U | < 1e-05 s⁻¹ |  | < 1e-05 s⁻¹ | 
16 | C10A C70A | 6.28e-05 ± 1.3e-05 s⁻¹ | 6.82e-05 ± 1.9e-05 s⁻¹ |  | 0.000194 ± 3.9e-05 s⁻¹
17 | G9U A14U U47A | < 1e-05 s⁻¹ | < 1e-05 s⁻¹ |  | < 1e-05 s⁻¹
18 | A15G A36U C50A G60A | < 1e-05 s⁻¹ |  |  | < 1e-05 s⁻¹
19 | U31G A33C U46G A53G G59A G63A | < 1e-05 s⁻¹ | < 1e-05 s⁻¹ |  | 
20 | G9U A42C | < 1e-05 s⁻¹ | < 1e-05 s⁻¹ |  | 
21 | A6G G40U U54A | < 1e-05 s⁻¹ |  |  | < 1e-05 s⁻¹
22 | G37C U47A | < 1e-05 s⁻¹ |  | 4.38e-05 ± 1.1e-05 s⁻¹ | 
23 | G7U A15U G51U C61U C67G | < 1e-05 s⁻¹ |  |  | < 1e-05 s⁻¹
24 | G21U C71G | 0.000226 ± 5.1e-05 s⁻¹ | 0.000294 ± 5.9e-05 s⁻¹ |  | 0.000218 ± 3.9e-05 s⁻¹
25 | C16U G51C | < 1e-05 s⁻¹ | < 1e-05 s⁻¹ |  | < 1e-05 s⁻¹
